Test results: publication PMC11145253 (Proceedings of the National Academy of Sciences of the …, 2024)

Target: T1, CTDNEP1ΔAH as it stands in the crystallized CTDNEP1ΔAH-linker-sNEP1R1-His6 fusion (human, UniProt O95476 40-244)
T1 sequence (looked up): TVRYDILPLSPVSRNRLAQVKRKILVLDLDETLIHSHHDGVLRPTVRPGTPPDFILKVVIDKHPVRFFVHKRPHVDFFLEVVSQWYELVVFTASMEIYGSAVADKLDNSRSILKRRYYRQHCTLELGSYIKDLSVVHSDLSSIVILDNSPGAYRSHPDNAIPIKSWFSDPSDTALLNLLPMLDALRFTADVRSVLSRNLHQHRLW
Experiment: crystal structure

binding result: binds
Binder: GSAKGSES [linker peptide of the CTDNEP1ΔAH-linker-sNEP1R1-His6 fusion]
